Data taken from the DeepSol protein solubility set.

assay: soluble on expression in E. coli; label from the status in PepcDB or PDB records

Row | Sequence | soluble on expression in E. coli
1 | MTNPTRTKRCGGDVLCGIDNHFQLLLYISENHCQLETKTFFEYFLRIVNKTHDYAILENKKICISHLEHHHHHH | not soluble
2 | GMQIESFKSLLPKYKCIFFDAFGVLKTYNGLLPGIENTFDYLKAQGQDYYIVTNDASRSPEQLADSYHKLGLFSITADKIISSGMITKEYIDLKVDGGIVAYLGTANSANYLVSDGIKMLPVSAIDDSNIGEVNALVLLDDEGFNWFHDLNKTVNLLRKRTIPAIVANTDNTYPLTKTDVAIAIGGVATMIESILGRRFIRFGKPDSQMFMFAYDMLRQKMEISKREILMVGDTLHTDILGGNKFGLDTALVLTGNTRIDDAETKIKSTGIVPTHICESAVIEL | soluble
3 | MTARNPLEAQAWALLEAVYDPELGLDVVNLGLIYDLVVEPPRAYVRMTLTTPGCPLHDSLGEAVRQALSRLPGVEEVEVEVTFEPPWTLARLSEKARRLLGWG | soluble
4 | VLLAIDVRNTHTVVGLLSGMKEHAKVVQQWRIRTESEVTADELALTIDGLIGEDSERLTGTAALSTVPSVLHEVRIMLDQYWPSVPHVLIEPGVRTGIPLLVDNPKEVGADRIVNCLAAYDRFRKAAIVVDFGSSICVDVVSAKGEFLGGAIAPGVQVSSDAAAARSAALRRVELARPRSVVGKNTVECMQAGAVFGFAGLVDGLVGRIREDVSGFSVDHDVAIVATGHTAPLLLPELHTVDHYDQHLTLQGLRLVFERNLEVQRGRLKTAR | soluble
5 | MAYFFKNLVFEGGGVKGIAYIGALEVLQEEKIFPKIKRVAGTSAGAIMAVLIGLGYTPSEIKEIMWCLNFKNFMDDSWGIIQDTKRLIEKFGWYKGDFFRNWLGDLIKAKTGNSESTFADLAAMKGENKFLDISLIGTNLSTGFSEIFSAEHTPRICIADAARISMSIPLFFAAKRNFRNDVYVDGGMLNNYPVKVFDRTKYVTKNFTRTGYYEPINKKLEKRPRKIADYVYNKETLGFRLDSKEKIAFFRDNAEPPHRDIDSFFDYTVSLFGTLLSAQDDVHLHSDDWQRTIYIDTLGVKTTDFAISDAQKKALLESGRSYTQSYLEWYNNSEEKVNK | not soluble
6 | MVFGFTKRDRRVPDLSRYDYYYQNHEDYNKSPQLSAAAASAASAASPDRTNYSRSHSLVSHAPSIPRQRSSVKSPGRRLSTSSAAPPTSRAAAKQYSQKTYSLRSQRSGEYHLHPPGYTTNGSRMNSMTSGANVRRNYGKNKSTAGNNNDSRANSITVKTTQVTDPSGRTQSITKKTIRKINGYEYVETTTTTKNLVPLGDSQRHFDEFSENYMLQDDDILEEQASDNIHDIIEENETDNEKPYSPVSESHLQDDSELNVEKPDFPLGSYFHHKYSTDVMPLEEESSLSNFSDALDYIPPTHQTSSKYIHNKRKQASTTRRKKRPPAVKNAEAEAKKPLTEAEMYLKALEVAKRNVYHTDAASDNASAPLGSNKSRKSRMGQKMTLRSSSDSPTATANLVKSNVEVQPKRFTSSFFSRNTKSAPHEVHNHSVSTHFKSNKAVDPVPEPKSANTGLTDKEMYDQALKIAQARYYNSHGIQPEAVDNSTTAAKPRQVGVSHLGSTGSIPPNEQHYLGDSEIPVQSEVHEYEPIPLQKTKTTGSSKNKFKTMFDKVLQFSQENYGYQHKKEQGEQTPVTRNAEESFPAASISEGVTTAKPSSNEGVMTNPVVTDSPSPLQQQIDSTTASSNGQSQGNVPTSAVASTTRTRSPELQDNLKSSSSLLQDQTPQRQEDATDPTTSSTNELSAAEPTMVTSTHATKTIQAQTQDPPTKHKKSSFFTKLFKKKSSR | soluble
7 | MAASAAATAAASAATAASAASGSPGSGEGSAGGEKRPAASSAAAASAAASSPAGGGGEAQELLEHCGVCRERLRPERDPRLLPCLHSACSACLGPATPAAANNSGDGGSAGDGAMVDCPVCKQQCYSKDIVENYFMRDSGSKASSDSQDANQCCTSCEDNAPATSYCVECSEPLCETCVEAHQRVKYTKDHTVRSTGPAKTRDGERTVYCNVHKHEPLVLFCESCDTLTCRDCQLNAHKDHQYQFLEDAVRNQRKLLASLVKRLGDKHATLQKNTKEVRSSIRQVSDVQKRVQVDVKMAILQIMKELNKRGRVLVNDAQKVTEGQQERLERQHWTMTKIQKHQEHILRFASWALESDNNTALLLSKKLIYFQLHRALKMIVDPVEPHGEMKFQWDLNAWTKSAEAFGKIVAERPGTNSTGPGPMAPPRAPGPLSKQGSGSSQPMEVQEGYGFGSDDPYSSAEPHVSGMKRSRSGEGEVSGLLRKVPRVSLERLDLDLTSDSQPPVFKVFPGSTTEDYNLIVIERGAAAAAAGQAGTVPPGAPGAPPLPGMAIVKEEETEAAIGAPPAAPEGPETKPVLMPLTEGPGAEGPRLASPSGSTSSGLEVVAPEVTSAPVSGPGILDDSATICRVCQKPGDLVMCNQCEFCFHLDCHLPALQDVPGEEWSCSLCHVLPDLKEEDGSLSLDGADSTGVVAKLSPANQRKCERVLLALFCHEPCRPLHQLATDSTFSMEQPGGTLDLTLIRARLQEKLSPPYSSPQEFAQDVGRMFKQFNKLTEDKADVQSIIGLQRFFETRMNDAFGDTKFSAVLVEPPPLNLPSAGLSSQELSGPGDGP | soluble
8 | MHHHHHHSSGLVPRGSGMKETAAAKFERQHMDSPDLGTDDDDKMKLQSPEFQSLFTEGLKSLTELFVKENHELRIAGGAVRDLLNGVKPQDIDFATTATPTQMKEMFQSAGIRMINNRGEKHGTITARLHEENFEITTLRIDVTTDGRHAEVEFTTDWQKDAERRDLTINSMFLGFDGTLFDYFNGYEDLKNKKVRFVGHAKQRIQEDYLRILRYFRFYGRIVDKPGDHDPETLEAIAENAKGLAGISGERIWVELKKILVGNHVNHLIHLIYDLDVAPYIGLPANASLEEFDKVSKNVDGFSPKPVTLLASLFKVQDDVTKLDLRLKIAKEEKNLGLFIVKNRKDLIKATDSSDPLKPYQDFIIDSREPDATTRVCELLKYQGEHCLLKEMQQWSIPPFPVSGHDIRKVGISSGKEIGALLQQLREQWKKSGYQMEKDELLSYIKKT | soluble
9 | QYVKPELPDVATLKDVELQTPMQVFSQDGKLIAQFGEKRRIPVTYDEIPQDLIHALIATEDSRFYEHPGIDPIGITRAAVVVALSGSAKQGASTITQQLARNFFLSNEKKLMRKIKEIFIAIHIEQLLSKQEIMELYVNKIFLGYRSYGFGAAAQVYFGKSLNELSLSEIATLAGMPKAPSTMNPIYSLERATKRRNVVLMRMLDEKYITQEQFDEARNEPIIARYHSAEIEVSAPYVAELARAWAVKEYGEEKAYTSGLNIYMTVDSKLQDAANKAAVNNLMAYDERHGYRGAEKVLWKEGEAAWDAEQIEKHLKGQPTYGDLYPAVVTKVEGKTAQVVVKNNDAQTIPWTGINWARKFLTDNRQGSTPKSAQEVLAAGEQIWVRELTTTDEDGNTQSSWKLSQVPSANT | not soluble
10 | MSLAAGRSSTSGLVAPDIENPFFPEIIRAFQESTNLSGLEAVGMNTAYDAQRTRGVIERPVSLQVPGAAFFTTQVDSGIKNALAARNIAGVYMDYGDAAPGISSIAVNYPEGMLQAITHLRDLGHRRIGLVGGPAHGAGAQRRKAAFLEGLKTNGIEGRATESDFSVQGGYFSCSKLLASYDCTAVIAANDLMAIGALHLAYDRQIAVPAQLSIIGFDDITFAKFTQPALTTVAVPRAEIGRVAFECRLALMKDPGAAGESHEIPTHLVVRQTTASVGEGHHHHHH | not soluble
11 | MAVSDNTFSMSTMFNALPNPTETSGYIPPSGFAPRASATPLHAALFNLMTDGDGVSYFKEMISKSDKTELQRMASLLTSDSDYFMSIVTTKFGSRRVQKLLGKSDDVDAFFCAAILRRFLHITTDKYASYVTIRAMVVFDKVMKKALYERILYHALDLACDQHGCIALNDIITDADDPYYRDQLLELVVSNALRLSNDASGNFVVQHVLTLYDSRCIHNIAVNLYGQCIELSFKKYGSYIVEKLLEVEESMVVVVVELLGCDGDRLMRLARNEFGNFVVVKALRFTKEMRMDLFWGLVQKLMPFIHLLRRSHGNNIANILDTFRLRC | soluble
12 | MAHHHHHHVDDDDKPGPALYEENALKGKIDDPNSYVPDAVQEAYKNLDSTSTLTEENFGKPYISAKDLKEIMYDHLPGFGTAFHQLVQVICKIGKDNNLLDTIHAEFQASLADGDSPQCALIQITKRVPIFQDVPPPIIHIRSRGDIPRACQKSLRPAPPSPKIDRGWVCLFKMQDGKTLGLKI | soluble
